The values below come from publication PMC6949303 (Nature Communications, 2020).

The labels stand for the following.
B1: ligelizumab single chain fragment variable (scFv) (scFv)
scFv: QVQLVQSGAEVMKPGSSVKVSCKASGYTFSWYWLEWVRQAPGHGLEWMGEIDPGTFTTNYNEKFKARVTFTADTSTSTAYMELSSLRSEDTAVYYCARFSHFSGSNYDYFDYWGQGTLVTVSSGTGGSGGGGSGGGGSGGGASEIVMTQSPATLSVSPGERATLSCRASQSIGTNIHWYQQKPGQAPRLLIYYASESISGIPARFSGSGSGTEFTLTISSLQSEDFAVYYCQQSWSWPTTFGGGTKVEIKENLYFQ
notes: ligelizumab VH domain; GTG(GSGGG)3AS linker; ligelizumab VL domain; also called ligelizumab scFv; ligelizumab single chain Fv; source: HEK 293-6E, co-transfected with IgE-Fc3-4, complex purified from supernatant (Ni-NTA, Superdex 200); not shown: His8, C-terminal, cleaved
B2: wild-type IgE-Fc3-4 (co-expressed with the ligelizumab scFv for crystallisation) (domain or fragment, human)
chain: CADSNPRGVSAYLSRPSPFDLFIRKSPTITCLVVDLAPSKGTVNLTWSRASGKPVNHSTRKEEKQRNGTLTVTSTLPVGTRDWIEGETYQCRVTHPHLPRALMRSTTKTSGPRAAPEVYAFATPEWPGSRDKRTLACLIQNFMPEDISVQWLHNEVQLPDARHSTTQPRKTKGSGFFVFSRLEVTRAEWEQKDEFICRAVHEAASPSQTVQRAVSVNP
notes: human IgE heavy chain constant region, Cε3 and Cε4 domains, wild type (C328); also called C328 IgE-Fc3-4 fragment; wt C328 IgE-Fc3-4; source: HEK 293-6E, co-transfected with ligelizumab scFv, complex purified from supernatant (Ni-NTA, Superdex 200)
B3: mutated C335 IgE-Fc3-4 (domain or fragment)
chain: AADSNPRCVSAYLSRPSPFDLFIRKSPTITCLVVDLAPSKGTVNLTWSRASGKPVNHSTRKEEKQRNGTLTVTSTLPVGTRDWIEGETYQCRVTHPHLPRALMRSTTKTSGPRAAPEVYAFATPEWPGSRDKRTLACLIQNFMPEDISVQWLHNEVQLPDARHSTTQPRKTKGSGFFVFSRLEVTRAEWEQKDEFICRAVHEAASPSQTVQRAVSVNPGK
modifications: Disulfide-linked homodimer via Cys335 (entity position 11), closed Cε3 conformation; N-glycosylated at Asn394. The change is not given; it is taken from 5HYS entity 3 (C328A/G335C). …
B4: mutated C335 IgE-Fc3-4 (domain or fragment)
chain: B3 chain
B5: Recombinant extracellular part of human FcεRIα (receptor, UniProt P12319 26-205, looked up)
chain: VPQKPKVSLNPPWNRIFKGENVTLTCNGNNFFEVSSTKWFHNGSLSEETNSSLNIVNAKFEDSGEYKCQHQQVNESEPVYLEVFSDWLLLQASAEVVMEGQPLFLRCHGWRNWDVYKVIYYKDGEALKYWYENHNISITNATVEDSGTYYCTGKVWQLDYESEPLNITVIKAPREKYWLQ
notes: also called recombinant human FcεRIα
B6: Ligelizumab IgG (antibody, V domains shown)
VH: QVQLVQSGAEVMKPGSSVKVSCKASGYTFSWYWLEWVRQAPGHGLEWMGEIDPGTFTTNYNEKFKARVTFTADTSTSTAYMELSSLRSEDTAVYYCARFSHFSGSNYDYFDYWGQGTLVTVSS
VL: EIVMTQSPATLSVSPGERATLSCRASQSIGTNIHWYQQKPGQAPRLLIYYASESISGIPARFSGSGSGTEFTLTISSLQSEDFAVYYCQQSWSWPTTFGGGTKVEIK
notes: constant region of the IgG heavy chain; constant region of the light chain; also called QGE031; source: produced and provided by Novartis Pharma AG
B7: Ligelizumab IgG (antibody, V domains shown)
VH: B6 VH
VL: B6 VL
notes: heavy chain constant region of the IgG; light chain constant region; also called QGE031; source: produced and provided by Novartis Pharma AG

Data set [1] deals with B2. The experiment in a line: crystal structure; scFv:IgE-Fc3-4 complex, hanging drop, 0.2 M Na thiocyanate pH 6.9, 20% PEG3350, 10 mM spermidine, 14 °C; 3.65 Å. The note with it: both partners purified.
Data set [2] deals with the molecule itself. The data set is described as above.
In the next data set the target is T1, Ligelizumab IgG.
T1 construct: constant region of the IgG heavy chain; constant region of the light chain; also called QGE031; source: produced and provided by Novartis Pharma AG
The experiment in a line: SPR; 100 RU ligelizumab or omalizumab IgG immobilised by amine coupling on CM5 (ligelizumab pH 5.0, omalizumab pH 4.5); 0.3-5 nM C328 or C335 IgE-Fc3-4 injected 120 s, dissociation 180 s; HBS-EP+, 10 ul/min, Biacore X100; 1:1 langmuir fit. Conditions: both partners purified.

For a further data set, the target named is T2, Omalizumab IgG.
T2 construct: also called Xolair; source: produced and provided by Novartis Pharma AG
The description is as above. Conditions: both partners purified.

In data set [3] the target is T3, wild-type C328 IgE-Fc3-4 (human, UniProt P01854 209-426).
T3 construct: human IgE heavy chain constant region, Cε3 and Cε4 domains, variant named C328; also called wt C328 IgE-Fc3-4
The experiment in a line: SPR; 1000 RU FcεRIα immobilised, 20 nM IgE-Fc3-4 captured; 3.13–100 nM ligelizumab or omalizumab injected 120 s, dissociation 180 s. Conditions: both partners purified.

In data set [4] the target is T4, wild-type C328 IgE-Fc3-4 (Homo sapiens, UniProt P01854).
T4 construct: human IgE heavy chain constant region, Fc fragment of the Cε3 and Cε4 domains, wild-type variant named C328; PDB 6UQR holds wt C328 IgE-Fc3-4 made in HEK 293-6E for the crystal; also called wt C328 IgE-Fc3-4
The experiment in a line: SPR; 100 RU ligelizumab or omalizumab IgG immobilised by amine coupling on CM5 (ligelizumab pH 5.0, omalizumab pH 4.5); 0.3-5 nM C328 or C335 IgE-Fc3-4 injected 120 s, dissociation 180 s; HBS-EP+, 10 ul/min, Biacore X100; 1:1 langmuir fit. The note with it: both partners purified.

In data set [5] the target is T5, wild-type C328 IgE-Fc3-4 (human, UniProt P01854).
T5 construct: human IgE heavy chain constant region, Cε3 and Cε4 domains, variant named C328; also called wt C328 IgE-Fc3-4
The experiment in a line: SPR; Biacore X100, CM5 chip, HBS-EP+; 100 RU ligelizumab or omalizumab IgG immobilised; 0.3–5 nM C328 or C335 IgE-Fc3-4 injected 120 s, dissociation 180 s. The note with it: both partners purified. For orientation: In SPR one partner is held on a chip, and binding of the other changes the refractive index at the surface.

For orientation: stoichiometry N means a count of units in the complex or per binding partner. In general, Kd refers to the equilibrium constant for the complex coming apart. Read a low Kd as a tighter complex. In general, koff refers to a measure of how fast the partners let go of each other. Higher therefore signals fast dissociation. The kon is the rate constant with which the complex forms. The low end stands for slow association, the high end for fast association.

In the case of B1, in data set [1], the binding result is given as “binds”.
Regarding B2, the “stoichiometry N” value in data set [2] was found to be 2.
Turning to B3, in the data set with Ligelizumab IgG, binding was put at a Kd of 0.64 nM, the koff is 0.0065 s⁻¹ and the kon worked out at 1.1e+07 M⁻¹ s⁻¹.
For B4, in the data set with Omalizumab IgG, the equilibrium dissociation constant (Kd) came to 0.608 nM, the off-rate (koff) is 0.0049 s⁻¹ and the kon was determined as 7.7e+06 M⁻¹ s⁻¹.
With B5, the binding result with wild-type C328 IgE-Fc3-4 [3] is recorded as “binds”.
Take B6: in the data set with wild-type C328 IgE-Fc3-4 [4], binding was characterised by a dissociation constant (Kd) of 0.011 nM, the koff worked out at 0.00014 s⁻¹ and the kon came out at 1.3e+07 M⁻¹ s⁻¹.
In the case of B7, the “fold higher affinity than C335 IgE-Fc3-4” value with wild-type C328 IgE-Fc3-4 [5] is around 60 fold.
